± gives the standard deviation of the averaged measurements.
Assay: total protein half-life in vivo (active degradation + dilution); higher = more stable protein
[1] = E. coli NCM3722 delta-clpP delta-lon delta-hslV, growth: N-lim chemostat, doubling time 6 h
[2] = E. coli NCM3722 delta-clpP, growth: N-lim chemostat, doubling time 6 h
[3] = E. coli NCM3722 delta-hslV, growth: N-lim chemostat, doubling time 6 h
[4] = E. coli NCM3722 delta-lon, growth: N-lim chemostat, doubling time 6 h
[5] = E. coli NCM3722 delta-smpB, growth: N-lim chemostat, doubling time 6 h
[6] = wild type E. coli NCM3722, growth: C-lim chemostat, doubling time 3 h
[7] = wild type E. coli NCM3722, growth: C-lim chemostat, doubling time 6 h
[8] = wild type E. coli NCM3722, growth: C-lim chemostat, doubling time 12 h
[9] = wild type E. coli NCM3722, growth: N-lim chemostat, doubling time 6 h
[10] = wild type E. coli NCM3722, growth: N-lim chemostat, doubling time 12 h
[11] = wild type E. coli NCM3722, growth: P-lim chemostat, doubling time 6 h
[12] = wild type E. coli NCM3722, growth: P-lim chemostat, doubling time 12 h

Sequence	total protein half-life in vivo [1] [h]	total protein half-life in vivo [2] [h]	total protein half-life in vivo [3] [h]	total protein half-life in vivo [4] [h]	total protein half-life in vivo [5] [h]	total protein half-life in vivo [6] [h]	total protein half-life in vivo [7] [h]	total protein half-life in vivo [8] [h]	total protein half-life in vivo [9] [h]	total protein half-life in vivo [10] [h]	total protein half-life in vivo [11] [h]	total protein half-life in vivo [12] [h]
MRYPVDVYTGKIQAYPEGKPSAIAKIQVDGELMLTELGLEGDEQAEKKVHGGPDRALCHYPREHYLYWAREFPEQAELFVAPAFGENLSTDGLTESNVYMGDIFRWGEALIQVSQPRSPCYKLNYHFDISDIAQLMQNTGKVGWLYSVIAPGKVSADAPLELVSRVSDVTVQEAAAIAWHMPFDDDQYHRLLSAAGLSKSWTRTMQKRRLSGKIEDFSRRLWGK	4.688 ± 0.014	4.89 ± 0.61	4.614 ± 0.023	5.77 ± 0.072	4.46 ± 0.23	3.04 ± 0.29	6.38 ± 1.3	9.06 ± 0.23	4.7 ± 0.19	7.96 ± 1.1	5.64 ± 0.12	12 ± 0.28
MRYRIFLLFFFALLPTSLVWAAPAQRAFSDWQVTCNNQNFCVARNTGDHNGLVMTLSRSAGAHTDAVLRIERGGLKSPEASEGEIAPRLLLDGEPLALSGDKWRISPWLLVTDDTATITAFLQMIQEGKAITLRDGDQTISLSGLKAALLFIDAQQKRVGSETAWIKKGDEPPLSVPPAPALKEVAVVNPTPTPLSLEERNDLLDYGNWRMNGLRCSLDPLRREVNVTALTDDKALMMISCEAGAYNTIDLAWIVSRKKPLASRPVRLRLPFNNGQETNELELMNATFDEKSRELVTLAKGRGLSDCGIQARWRFDGQRFRLVRYAAEPTCDNWHGPDAWPTLWITR	4.79 ± 0.75	5.182 ± 0.02	6.05 ± 0.37	5.51 ± 0.2	5.55 ± 0.54	3.44 ± 0.45	5.86 ± 1.1	10.4 ± 2	5.2 ± 0.56	12.9 ± 3.8	4.81 ± 0.49	9.92 ± 0.41
MSAEHVLTMLNEHEVKFVDLRFTDTKGKEQHVTIPAHQVNAEFFEEGKMFDGSSIGGWKGINESDMVLMPDASTAVIDPFFADSTLIIRCDILEPGTLQGYDRDPRSIAKRAEDYLRSTGIADTVLFGPEPEFFLFDDIRFGSSISGSHVAIDDIEGAWNSSTQYEGGNKGHRPAVKGGYFPVPPVDSAQDIRSEMCLVMEQMGLVVEAHHHEVATAGQNEVATRFNTMTKKADEIQIYKYVVHNVAHRFGKTATFMPKPMFGDNGSGMHCHMSLSKNGVNLFAGDKYAGLSEQALYYIGGVIKHAKAINALANPTTNSYKRLVPGYEAPVMLAYSARNRSASIRIPVVSSPKARRIEVRFPDPAANPYLCFAALLMAGLDGIKNKIHPGEAMDKNLYDLPPEEAKEIPQVAGSLEEALNELDLDREFLKAGGVFTDEAIDAYIALRREEDDRVRMTPHPVEFELYYSV [P0A9C5]	5.3 ± 0.14	4.58 ± 0.32	4.63 ± 0.14	5.06 ± 0.33	4.02 ± 0.12	3.39 ± 0.49	6.33 ± 0.86	11.5 ± 0.3	4.25 ± 0.046	7.49 ± 0.92	5.8 ± 0.092	12.1 ± 0.55
MSAFKKSLLVAGVAMILSNNVFADEGHGIVKFKGEVISAPCSIKPGDEDLTVNLGEVADTVLKSDQKSLAEPFTIHLQDCMLSQGGTTYSKAKVTFTTANTMTGQSDLLKNTKETEIGGATGVGVRILDSQSGEVTLGTPVVITFNNTNSYQELNFKARMESPSKDATPGNVYAQADYKIAYE	5.72	5.47	5.25		3.96 ± 0.24	1.78						
MSAGRLNKKSLGIVMLLSVGLLLAGCSGSKSSDTGTYSGSVYTVKRGDTLYRISRTTGTSVKELARLNGISPPYTIEVGQKLKLGGAKSSSITRKSTAKSTTKTASVTPSSAVPKSSWPPVGQRCWLWPTTGKVIMPYSTADGGNKGIDISAPRGTPIYAAGAGKVVYVGNQLRGYGNLIMIKHSEDYITAYAHNDTMLVNNGQSVKAGQKIATMGSTDAASVRLHFQIRYRATAIDPLRYLPPQGSKPKC		6.06 ± 0.3	6.34 ± 0.85	6.04 ± 0.44	5.693 ± 0.011	3.22 ± 0.21	5.4794 ± 0.0017	9.64 ± 0.25	5.64 ± 0.52	10.8 ± 0.38	6.32 ± 0.37	13.3 ± 0.95
MSAKHPVIAVTGSSGAGTTTTSLAFRKIFAQLNLHAAEVEGDSFHRYTRPEMDMAIRKARDAGRHISYFGPEANDFGLLEQTFIEYGQSGKGKSRKYLHTYDEAVPWNQVPGTFTPWQPLPEPTDVLFYEGLHGGVVTPQHNVAQHVDLLVGVVPIVNLEWIQKLIRDTSERGHSREAVMDSVVRSMEDYINYITPQFSRTHLNFQRVPTVDTSNPFAAKGIPSLDESFVVIHFRNLEGIDFPWLLAMLQGSFISHINTLVVPGGKMGLAMELIMLPLVQRLMEGKKIE [P0AEX5]	5.45 ± 0.28	5.4 ± 0.23	4.95 ± 0.67	4.68 ± 1.1	5.185 ± 0.032	2.96 ± 0.14	5.5 ± 0.22	11.8 ± 3.6	5.42 ± 0.28	10.9 ± 2.4	6.156 ± 0.01	12.4 ± 2.5
MSALFLAIPLTIFVLFVLPIWLWLHYSNRSGRSELSQSEQQRLAQLADEAKRMRERIQALESILDAEHPNWRDR [P0AFM9]	6.51 ± 0.1	6.06	6.22 ± 0.43	5.01 ± 1.7	6.04 ± 0.43	2.84 ± 0.24	5.55 ± 1.4	13.4 ± 2.2	6.02 ± 0.28		4.5 ± 1.6	12.1 ± 0.9
MSALNKKSFLTYLKEGGIYVVLLVLLAIIIFQDPTFLSLLNLSNILTQSSVRIIIALGVAGLIVTQGTDLSAGRQVGLAAVVAATLLQSMDNANKVFPEMATMPIALVILIVCAIGAVIGLINGLIIAYLNVTPFITTLGTMIIVYGINSLYYDFVGASPISGFDSGFSTFAQGFVALGSFRLSYITFYALIAVAFVWVLWNKTRFGKNIFAIGGNPEAAKVSGVNVGLNLLMIYALSGVFYAFGGMLEAGRIGSATNNLGFMYELDAIAACVVGGVSFSGGVGTVIGVVTGVIIFTVINYGLTYIGVNPYWQYIIKGAIIIFAVALDSLKYARKK	3.21	6.19	6.83 ± 0.54	6.18	6.18 ± 0.67	3.05 ± 0.18		12 ± 0.2			5.49 ± 1.3	
